These results are taken from US20260217779A1 (Chugai, published 2026).

This assay addresses T1, human CXCR3 (hCXCR3) on Ba/F3 transfectant cells (human, UniProt P49682 1-368).
T1 sequence: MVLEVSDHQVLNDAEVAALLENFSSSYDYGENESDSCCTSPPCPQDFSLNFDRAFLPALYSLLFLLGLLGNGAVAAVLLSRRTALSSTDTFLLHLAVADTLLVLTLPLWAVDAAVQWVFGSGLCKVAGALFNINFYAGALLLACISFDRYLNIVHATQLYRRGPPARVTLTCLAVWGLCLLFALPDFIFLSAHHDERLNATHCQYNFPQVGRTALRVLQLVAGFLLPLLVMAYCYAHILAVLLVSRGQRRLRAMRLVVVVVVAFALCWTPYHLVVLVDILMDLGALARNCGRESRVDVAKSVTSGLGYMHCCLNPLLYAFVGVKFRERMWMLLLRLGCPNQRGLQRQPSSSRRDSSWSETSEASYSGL
Kind of assay: cell-based or functional assay.

B1: hCXCL11.0041-G1T4k.one//VHn-G1T4h.one.H435R (Fc fusion)
chain 1: FDPMFKRGRCLCIGPGVKAVKVADIEKASIMYPSNNCDKIEVIITLKENKGQRCLNPKSKQARLIIKKVERKNFEPKSSDKTHTCPPCPAPELRRGPSVFLFPPKPKDTLMISRTPEVTCVVVDVSHEDPEVKFNWYVDGVEVHNAKTKPREEQYNSTYRVVSVLTVLHQDWLNGKEYKCKVSNKGLPSSIEKTISKAKGQPREPQVCTLPPSREEMTKNQVSLWCLVKGFYPSDIAVEWESNGQPENNYKTTPPVLDSDGSFFLYSKLTVDKSRWQEGNVFSCSVMHEALHNHYTQKSLSLSP
chain 2: EPKSSDKTHTCPPCPAPELRRGPSVFLFPPKPKDTLMISRTPEVTCVVVDVSHEDPEVKFNWYVDGVEVHNAKTKPREEQYNSTYRVVSVLTVLHQDWLNGKEYKCKVSNKGLPSSIEKTISKAKGQPREPQVYTLPPSRCEMTKNQVSLSCAVKGFYPSDIAVEWESNGQPENNYKTTPPVLDSDGSFFLVSKLTVDKSRWQEGNVFSCSVMHEALHNRYTQKSLSLSP
With B1, the “Activity retention rate at 33 nM” value is 25%, the “Activity retention rate at 100 nM” value came out at 56%, the “Activity retention rate at 300 nM” value came to 42% and the “Luminescence value at 33 nM” value came to 1.92e+06. The “Luminescence value at 100 nM” value worked out at 9.37e+06 and the “Luminescence value at 300 nM” value was 5.16e+06.

B2: hCXCL11.0049-G1T4k.one//VHn-G1T4h.one.H435R (Fc fusion)
chain 1: FMPMFKRGRCLCIGPGVKAVKVADIEKASIMYPSNNCDKIEVIITLKENKGQRCLNPKSKQARLIIKKVERKNFEPKSSDKTHTCPPCPAPELRRGPSVFLFPPKPKDTLMISRTPEVTCVVVDVSHEDPEVKFNWYVDGVEVHNAKTKPREEQYNSTYRVVSVLTVLHQDWLNGKEYKCKVSNKGLPSSIEKTISKAKGQPREPQVCTLPPSREEMTKNQVSLWCLVKGFYPSDIAVEWESNGQPENNYKTTPPVLDSDGSFFLYSKLTVDKSRWQEGNVFSCSVMHEALHNHYTQKSLSLSP
chain 2: EPKSSDKTHTCPPCPAPELRRGPSVFLFPPKPKDTLMISRTPEVTCVVVDVSHEDPEVKFNWYVDGVEVHNAKTKPREEQYNSTYRVVSVLTVLHQDWLNGKEYKCKVSNKGLPSSIEKTISKAKGQPREPQVYTLPPSRCEMTKNQVSLSCAVKGFYPSDIAVEWESNGQPENNYKTTPPVLDSDGSFFLVSKLTVDKSRWQEGNVFSCSVMHEALHNRYTQKSLSLSP
Turning to B2, the “Activity retention rate at 33 nM” value is 66%, the “Activity retention rate at 100 nM” value amounted to 90%, the “Activity retention rate at 300 nM” value was determined as 75% and the “Luminescence value at 33 nM” value is 5.1e+06. Moreover, the “Luminescence value at 100 nM” value turned out to be 1.5e+07 and the “Luminescence value at 300 nM” value was found to be 9.32e+06.

B3: hCXCL11.0042-G1T4k.one//VHn-G1T4h.one.H435R (Fc fusion)
chain 1: FEPMFKRGRCLCIGPGVKAVKVADIEKASIMYPSNNCDKIEVIITLKENKGQRCLNPKSKQARLIIKKVERKNFEPKSSDKTHTCPPCPAPELRRGPSVFLFPPKPKDTLMISRTPEVTCVVVDVSHEDPEVKFNWYVDGVEVHNAKTKPREEQYNSTYRVVSVLTVLHQDWLNGKEYKCKVSNKGLPSSIEKTISKAKGQPREPQVCTLPPSREEMTKNQVSLWCLVKGFYPSDIAVEWESNGQPENNYKTTPPVLDSDGSFFLYSKLTVDKSRWQEGNVFSCSVMHEALHNHYTQKSLSLSP
chain 2: EPKSSDKTHTCPPCPAPELRRGPSVFLFPPKPKDTLMISRTPEVTCVVVDVSHEDPEVKFNWYVDGVEVHNAKTKPREEQYNSTYRVVSVLTVLHQDWLNGKEYKCKVSNKGLPSSIEKTISKAKGQPREPQVYTLPPSRCEMTKNQVSLSCAVKGFYPSDIAVEWESNGQPENNYKTTPPVLDSDGSFFLVSKLTVDKSRWQEGNVFSCSVMHEALHNRYTQKSLSLSP
Take B3: the “Activity retention rate at 33 nM” value was 61%, the “Activity retention rate at 100 nM” value was 67%, the “Activity retention rate at 300 nM” value is 58% and the “Luminescence value at 33 nM” value turned out to be 4.7e+06. For the same molecule, the “Luminescence value at 100 nM” value is 1.12e+07 and the “Luminescence value at 300 nM” value amounted to 7.23e+06.

B4: hCXCL11.0046-G1T4k.one//VHn-G1T4h.one.H435R (Fc fusion)
chain 1: FIPMFKRGRCLCIGPGVKAVKVADIEKASIMYPSNNCDKIEVIITLKENKGQRCLNPKSKQARLIIKKVERKNFEPKSSDKTHTCPPCPAPELRRGPSVFLFPPKPKDTLMISRTPEVTCVVVDVSHEDPEVKFNWYVDGVEVHNAKTKPREEQYNSTYRVVSVLTVLHQDWLNGKEYKCKVSNKGLPSSIEKTISKAKGQPREPQVCTLPPSREEMTKNQVSLWCLVKGFYPSDIAVEWESNGQPENNYKTTPPVLDSDGSFFLYSKLTVDKSRWQEGNVFSCSVMHEALHNHYTQKSLSLSP
chain 2: EPKSSDKTHTCPPCPAPELRRGPSVFLFPPKPKDTLMISRTPEVTCVVVDVSHEDPEVKFNWYVDGVEVHNAKTKPREEQYNSTYRVVSVLTVLHQDWLNGKEYKCKVSNKGLPSSIEKTISKAKGQPREPQVYTLPPSRCEMTKNQVSLSCAVKGFYPSDIAVEWESNGQPENNYKTTPPVLDSDGSFFLVSKLTVDKSRWQEGNVFSCSVMHEALHNRYTQKSLSLSP
As for B4, the “Activity retention rate at 33 nM” value was found to be 10%, the “Activity retention rate at 100 nM” value was 36%, the “Activity retention rate at 300 nM” value is 65% and the “Luminescence value at 33 nM” value was found to be 760000. The “Luminescence value at 100 nM” value was determined as 6.04e+06 and the “Luminescence value at 300 nM” value was found to be 8.05e+06.

B5: hCXCL11.0047-G1T4k.one//VHn-G1T4h.one.H435R (Fc fusion)
chain 1: FKPMFKRGRCLCIGPGVKAVKVADIEKASIMYPSNNCDKIEVIITLKENKGQRCLNPKSKQARLIIKKVERKNFEPKSSDKTHTCPPCPAPELRRGPSVFLFPPKPKDTLMISRTPEVTCVVVDVSHEDPEVKFNWYVDGVEVHNAKTKPREEQYNSTYRVVSVLTVLHQDWLNGKEYKCKVSNKGLPSSIEKTISKAKGQPREPQVCTLPPSREEMTKNQVSLWCLVKGFYPSDIAVEWESNGQPENNYKTTPPVLDSDGSFFLYSKLTVDKSRWQEGNVFSCSVMHEALHNHYTQKSLSLSP
chain 2: EPKSSDKTHTCPPCPAPELRRGPSVFLFPPKPKDTLMISRTPEVTCVVVDVSHEDPEVKFNWYVDGVEVHNAKTKPREEQYNSTYRVVSVLTVLHQDWLNGKEYKCKVSNKGLPSSIEKTISKAKGQPREPQVYTLPPSRCEMTKNQVSLSCAVKGFYPSDIAVEWESNGQPENNYKTTPPVLDSDGSFFLVSKLTVDKSRWQEGNVFSCSVMHEALHNRYTQKSLSLSP
For the molecule B5, the “Activity retention rate at 33 nM” value was found to be 5%, the “Activity retention rate at 100 nM” value turned out to be 22%, the “Activity retention rate at 300 nM” value turned out to be 52% and the “Luminescence value at 33 nM” value was found to be 391000. For the same molecule, the “Luminescence value at 100 nM” value is 3.72e+06 and the “Luminescence value at 300 nM” value amounted to 6.48e+06.

B6: hCXCL11.0048-G1T4k.one//VHn-G1T4h.one.H435R (Fc fusion)
chain 1: FLPMFKRGRCLCIGPGVKAVKVADIEKASIMYPSNNCDKIEVIITLKENKGQRCLNPKSKQARLIIKKVERKNFEPKSSDKTHTCPPCPAPELRRGPSVFLFPPKPKDTLMISRTPEVTCVVVDVSHEDPEVKFNWYVDGVEVHNAKTKPREEQYNSTYRVVSVLTVLHQDWLNGKEYKCKVSNKGLPSSIEKTISKAKGQPREPQVCTLPPSREEMTKNQVSLWCLVKGFYPSDIAVEWESNGQPENNYKTTPPVLDSDGSFFLYSKLTVDKSRWQEGNVFSCSVMHEALHNHYTQKSLSLSP
chain 2: EPKSSDKTHTCPPCPAPELRRGPSVFLFPPKPKDTLMISRTPEVTCVVVDVSHEDPEVKFNWYVDGVEVHNAKTKPREEQYNSTYRVVSVLTVLHQDWLNGKEYKCKVSNKGLPSSIEKTISKAKGQPREPQVYTLPPSRCEMTKNQVSLSCAVKGFYPSDIAVEWESNGQPENNYKTTPPVLDSDGSFFLVSKLTVDKSRWQEGNVFSCSVMHEALHNRYTQKSLSLSP
As to B6, the “Activity retention rate at 33 nM” value was determined as 52%, the “Activity retention rate at 100 nM” value came out at 75%, the “Activity retention rate at 300 nM” value worked out at 72% and the “Luminescence value at 33 nM” value turned out to be 3.97e+06. Moreover, the “Luminescence value at 100 nM” value stood at 1.25e+07 and the “Luminescence value at 300 nM” value came to 8.95e+06.

B7: hCXCL11.0044-G1T4k.one//VHn-G1T4h.one.H435R (Fc fusion)
chain 1: FGPMFKRGRCLCIGPGVKAVKVADIEKASIMYPSNNCDKIEVIITLKENKGQRCLNPKSKQARLIIKKVERKNFEPKSSDKTHTCPPCPAPELRRGPSVFLFPPKPKDTLMISRTPEVTCVVVDVSHEDPEVKFNWYVDGVEVHNAKTKPREEQYNSTYRVVSVLTVLHQDWLNGKEYKCKVSNKGLPSSIEKTISKAKGQPREPQVCTLPPSREEMTKNQVSLWCLVKGFYPSDIAVEWESNGQPENNYKTTPPVLDSDGSFFLYSKLTVDKSRWQEGNVFSCSVMHEALHNHYTQKSLSLSP
chain 2: EPKSSDKTHTCPPCPAPELRRGPSVFLFPPKPKDTLMISRTPEVTCVVVDVSHEDPEVKFNWYVDGVEVHNAKTKPREEQYNSTYRVVSVLTVLHQDWLNGKEYKCKVSNKGLPSSIEKTISKAKGQPREPQVYTLPPSRCEMTKNQVSLSCAVKGFYPSDIAVEWESNGQPENNYKTTPPVLDSDGSFFLVSKLTVDKSRWQEGNVFSCSVMHEALHNRYTQKSLSLSP
B7: the “Activity retention rate at 33 nM” value was found to be 68%, the “Activity retention rate at 100 nM” value was 76%, the “Activity retention rate at 300 nM” value stood at 72% and the “Luminescence value at 33 nM” value turned out to be 5.24e+06. In addition, the “Luminescence value at 100 nM” value was found to be 1.27e+07 and the “Luminescence value at 300 nM” value stood at 8.9e+06.

B8: hCXCL11.0045-G1T4k.one//VHn-G1T4h.one.H435R (Fc fusion)
chain 1: FHPMFKRGRCLCIGPGVKAVKVADIEKASIMYPSNNCDKIEVIITLKENKGQRCLNPKSKQARLIIKKVERKNFEPKSSDKTHTCPPCPAPELRRGPSVFLFPPKPKDTLMISRTPEVTCVVVDVSHEDPEVKFNWYVDGVEVHNAKTKPREEQYNSTYRVVSVLTVLHQDWLNGKEYKCKVSNKGLPSSIEKTISKAKGQPREPQVCTLPPSREEMTKNQVSLWCLVKGFYPSDIAVEWESNGQPENNYKTTPPVLDSDGSFFLYSKLTVDKSRWQEGNVFSCSVMHEALHNHYTQKSLSLSP
chain 2: EPKSSDKTHTCPPCPAPELRRGPSVFLFPPKPKDTLMISRTPEVTCVVVDVSHEDPEVKFNWYVDGVEVHNAKTKPREEQYNSTYRVVSVLTVLHQDWLNGKEYKCKVSNKGLPSSIEKTISKAKGQPREPQVYTLPPSRCEMTKNQVSLSCAVKGFYPSDIAVEWESNGQPENNYKTTPPVLDSDGSFFLVSKLTVDKSRWQEGNVFSCSVMHEALHNRYTQKSLSLSP
For B8, the “Activity retention rate at 33 nM” value stood at 61%, the “Activity retention rate at 100 nM” value was found to be 75%, the “Activity retention rate at 300 nM” value was determined as 67% and the “Luminescence value at 33 nM” value is 4.67e+06. The “Luminescence value at 100 nM” value amounted to 1.26e+07 and the “Luminescence value at 300 nM” value amounted to 8.3e+06.
